According to patent publication US20230120736A1, “ANTI-CD98 ANTIBODIES AND ANTIBODY DRUG CONJUGATES” (AbbVie Inc., priority 2016, published 2023):
Substitutions are numbered along the chain they refer to. Blank lines part the entries; values can stand above or below the molecule they belong to.

Assays:
[1] = Conjugation of anti-CD98 mAbs with Bcl-xL inhibitor synthons (precipitation, DAR, recovery, aggregation); conditions: Method E
Method: Method A. A solution of BOND-BREAKER tris(2-carboxyethyl)phosphine (TCEP) solution (10 mM, 0.017 mL) was added to a solution of antibody (10 mg/mL, […]) preheated to 37° C. The reaction mixture was kept at 37° C. for 1 hour. The solution of reduced antibody was added to a solution of synthon (3.3 mM, 0.160 mL in DMSO) and gently mixed for 30 minutes. The reaction solution was loaded onto a desalting column (PD10, washed with DPBS 3x before use), followed by DPBS (1.6 mL) and eluted with additional DPBS (3 mL). The purified ADC solution was filtered through a 0.2 micron, low protein-binding 13 mm syringe-filter and stored at 4° C.
Method E. A solution of BOND-BREAKER tris(2-carboxyethyl)phosphine (TCEP) solution (10 mM, 0.017 mL) was added to the solution of antibody (10 mg/mL, 1 mL) at room temperature. The reaction mixture was heated to 37° C. for 75 minutes. The solution of reduced antibody cooled to room temperature and was added to a solution of synthon (10 mM, 0.040 mL in DMSO) followed by addition of boric buffer (0.1 mL, 1M, pH 8). The reaction solution was let to stand for 3 days at room temperature, loaded onto a desalting column (PD10, washed with DPBS 3×5 mL before use), followed by DPBS (1.6 mL) and eluted with additional DPBS (3 mL). The purified ADC solution was filtered through a 0.2 micron, low protein-binding 13 mm syringe-filter and stored at 4° C.

human CD98 ECD = molecular target: T1, human CD98 ECD (Homo sapiens, UniProt P08195); assay: Biacore surface plasmon resonance binding kinetics (anti-Fc capture); conditions: huCD98 ECD
T1 construct: Human CD98 ECD with C-terminal His-tag
T1 sequence (P08195 with tags, fused parts or gaps): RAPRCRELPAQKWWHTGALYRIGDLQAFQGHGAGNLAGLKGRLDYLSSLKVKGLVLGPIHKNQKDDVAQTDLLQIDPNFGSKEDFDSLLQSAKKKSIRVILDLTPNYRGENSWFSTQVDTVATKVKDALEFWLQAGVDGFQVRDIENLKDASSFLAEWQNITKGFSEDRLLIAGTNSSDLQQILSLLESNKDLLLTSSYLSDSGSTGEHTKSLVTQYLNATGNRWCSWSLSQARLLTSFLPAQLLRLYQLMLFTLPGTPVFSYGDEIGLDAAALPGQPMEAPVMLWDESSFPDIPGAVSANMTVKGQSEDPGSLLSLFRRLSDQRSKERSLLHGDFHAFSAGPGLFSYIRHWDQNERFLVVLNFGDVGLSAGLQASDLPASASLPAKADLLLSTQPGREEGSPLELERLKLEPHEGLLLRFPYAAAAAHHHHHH
Method: (§1) The binding kinetics of these purified mouse and rat monoclonal anti-CD98 antibodies for purified recombinant CD98 protein (extracellular domain, ECD) were determined by surface plasmon resonance-based measurements made on Biacore T100/T200 instruments (GE Healthcare, Piscataway, N.J.) at 25° C. using an anti-Fc capture assay approach. Binding kinetic measurements were made in the assay buffer HBS-EP+: 10 mM Hepes, pH 7.4, 150 mM NaCl, 3 mM EDTA, 0.05% Tween 20). For example, approximately 8000 RU of anti-Fc (species specific) polyclonal antibody (Thermo Fisher Scientific Inc., Rockford, Ill.) diluted in 10 mM sodium acetate (pH 4.5) was directly immobilized across a CM5 research grade biosensor chip using a standard amine coupling kit according to manufacturer's instructions and procedures at 25 μg/ml. Unreacted moieties on the biosensor surface were blocked with ethanolamine. The test antibody to be captured as a ligand was diluted in running buffer to ˜0.5 μg/mL and injected over anti-Fc surface at a flow rate of 10 μL/min. CD98 binding and dissociation were observed under a continuous flow rate of 80 μL/min. Human and cynomolgus monkey CD98 ECDs, both with a C-terminal His-tag, are used for this study (Table 3). After each cycle the anti-Fc capture surface was regenerated using 10 mM Glycine-HCl, pH 1.5. During the assay, all measurements were referenced against the capture surface alone (i.e., with no captured test antibody) and buffer-only injections (no antigen) were used for double referencing. For kinetic analysis, rate equations derived from the 1:1 Langmuir binding model were fitted simultaneously, globally and with mass transfer term included to multiple referenced antigen binding curves using Biacore T100/T200 Evaluation software.
(§2) The in vitro binding activities of the recombinant anti-CD98 chimeric mAbs were measured against both recombinant CD98 extracellular domain proteins (ECDs) and CD98-expressing cells. Briefly, binding kinetics of anti-CD98 chimera mAbs for human and cynomolgus CD98 ECDs were determined by surface plasmon resonance-based measurements as described in Example 4. Table 10 reported the association and dissociation rate constants for CD98 binding, ka (M^−1 s^−1) and kd (s^−1), and the equilibrium dissociation constant KD (M) of the interaction between antibodies and the target antigen. Binding of anti-CD98 chimera mAbs for CD98 on cell surface was evaluated by flow cytometry against CHO-K1 cell line stably transfected to express human CD98 and 3T12 cell line stably transfected to express cynomolgus monkey CD98.
(§3) The binding kinetics of the recombinant anti-CD98 chimeric antibodies for purified recombinant CD98 protein (extracellular domain, ECD) were determined by surface plasmon resonance-based measurements, as described in the Example 4.

[2] = system: cynomolgus monkey CD98 ECD; assay: as above; conditions: cyCD98 ECD
Method: as §1, §2, §3

human CD98 = molecular target: T2, human CD98 (Homo sapiens, UniProt P08195); assay: Binding of humanized antibodies to human CD98; conditions: humanized framework engineered antibodies
T2 sequence (P08195 1-630 isoform P08195-1): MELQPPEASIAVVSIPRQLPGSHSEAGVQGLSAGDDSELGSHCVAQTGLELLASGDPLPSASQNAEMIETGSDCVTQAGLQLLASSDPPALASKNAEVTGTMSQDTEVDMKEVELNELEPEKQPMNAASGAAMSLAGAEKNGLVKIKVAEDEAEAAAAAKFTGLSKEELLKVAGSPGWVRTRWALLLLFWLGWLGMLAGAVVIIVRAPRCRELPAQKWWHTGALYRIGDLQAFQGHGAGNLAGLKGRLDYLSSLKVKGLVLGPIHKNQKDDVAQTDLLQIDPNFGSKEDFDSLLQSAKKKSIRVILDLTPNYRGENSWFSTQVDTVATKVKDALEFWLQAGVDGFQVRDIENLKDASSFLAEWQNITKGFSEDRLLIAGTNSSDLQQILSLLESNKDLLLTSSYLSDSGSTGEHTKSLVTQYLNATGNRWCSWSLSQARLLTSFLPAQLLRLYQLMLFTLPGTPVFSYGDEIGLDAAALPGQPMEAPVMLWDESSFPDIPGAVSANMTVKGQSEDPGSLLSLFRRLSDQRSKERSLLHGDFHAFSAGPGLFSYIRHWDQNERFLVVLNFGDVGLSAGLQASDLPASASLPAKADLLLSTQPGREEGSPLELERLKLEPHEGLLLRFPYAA

Chain of cynomolgus monkey CD98 ECD (as listed by the source): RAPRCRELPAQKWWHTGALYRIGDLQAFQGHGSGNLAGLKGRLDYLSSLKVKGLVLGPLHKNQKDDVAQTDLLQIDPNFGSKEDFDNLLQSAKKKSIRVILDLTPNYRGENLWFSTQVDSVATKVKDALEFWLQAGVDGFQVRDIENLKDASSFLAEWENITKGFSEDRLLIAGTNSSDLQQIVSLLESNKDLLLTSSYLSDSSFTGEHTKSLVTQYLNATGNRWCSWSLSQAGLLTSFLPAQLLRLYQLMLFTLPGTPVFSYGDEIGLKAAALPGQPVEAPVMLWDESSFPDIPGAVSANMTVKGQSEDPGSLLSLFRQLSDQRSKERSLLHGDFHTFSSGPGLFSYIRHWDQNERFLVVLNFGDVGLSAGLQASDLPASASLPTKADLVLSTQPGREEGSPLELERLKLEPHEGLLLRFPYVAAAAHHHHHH

B2: huAb107: "heavy chain variable sequence of huAb107 is provided in SEQ ID NO: 114"; "light chain variable sequence ... in SEQ ID NO: 112" (antibody, V domains shown)
VH: EVQLVESGGGLVQPGGSLRLSCAASGFTFSDYTMAWVRQAPGKGLEWVATIIYSGRGTYYRDAVKGRFTISRDNAKNTLYLQMNSLRAEDTAVYYCARQSDDTYYYWGYFDYWGQGTMVTVSS
VL: DIVMTQTPLSLPVTPGEPASINCKSSQSLLFSGNQKNYLAWYLQKPGQSPQLLIYWASTRQSGVPDRFSGSGSGTDFTLKISRVEAEDVGIYYCQQYYDVPYTFGQGTKLEIK
% Aggregates by SEC ([1]; conjugation with synthon CZ): 1.9%
DAR by MS ([1]; conjugation with synthon CZ): 2.2
% Aggregates by SEC ([1]; conjugation with synthon TX): 1.5%
DAR by MS ([1]; conjugation with synthon TX): 3.1
ka (human CD98 ECD): 110000 M⁻¹ s⁻¹
kd (human CD98 ECD): 3.8e-05 s⁻¹
ka [2]: 33000 M⁻¹ s⁻¹
kd [2]: 8.7e-05 s⁻¹
binding to human CD98 (human CD98): maintained binding

B4: huAb109: "heavy chain variable sequence of huAb109 is provided in SEQ ID NO: 116"; "light chain variable sequence ... in SEQ ID NO: 117" (antibody, V domains shown)
VH: B2 VH with S54D, G55A
VL: B2 VL with D99S, V100S
% Aggregates by SEC ([1]; conjugation with synthon CZ): 2.5%
DAR by MS ([1]; conjugation with synthon CZ): 2.1
% Aggregates by SEC ([1]; conjugation with synthon TX): 1.0%
DAR by MS ([1]; conjugation with synthon TX): 2.9
ka (human CD98 ECD): 160000 M⁻¹ s⁻¹
kd (human CD98 ECD): 0.00017 s⁻¹
ka [2]: 26000 M⁻¹ s⁻¹
kd [2]: 0.00031 s⁻¹
binding to human CD98 (human CD98): maintained binding

B5: huAb103: "heavy chain variable sequence of huAb103 is provided in SEQ ID NO: 109"; "light chain variable sequence ... in SEQ ID NO: 107" (antibody, V domains shown)
VH: EVQLVESGGGLVKPGGSLRLSCATSGFTFIDYYMSWVRQAPGKGLEWLGFIRNKAYGYTTEYSASVKGRFTISRDNSKSILYLQMNSLKTEDTAVYYCTRDRPAWFVYWGQGTLVTVSS
VL: B2 VL with N22S, F31Y, G33S, Q61E, I91V, D99S, V100Y, Q106G, L110V
% Aggregates by SEC ([1]; conjugation with synthon CZ): 15.9%
DAR by MS ([1]; conjugation with synthon CZ): 4.4
% Aggregates by SEC ([1]; conjugation with synthon TX): 0.9%
DAR by MS ([1]; conjugation with synthon TX): 3.8
ka (human CD98 ECD): 180000 M⁻¹ s⁻¹
kd (human CD98 ECD): 0.00059 s⁻¹
ka [2]: 31000 M⁻¹ s⁻¹
kd [2]: 0.00044 s⁻¹
binding to human CD98 (human CD98): maintained binding

More lines, main results first:

ka (human CD98 ECD): 290000 M⁻¹ s⁻¹
kd (human CD98 ECD): 0.0018 s⁻¹
ka [2]: 30000 M⁻¹ s⁻¹
kd [2]: 0.00067 s⁻¹
binding to human CD98 (human CD98): maintained binding
B1: huAb101: "heavy chain variable sequence of huAb101 is provided in SEQ ID NO: 106"; "light chain variable sequence ... in SEQ ID NO: 107" (antibody, V domains shown)
VH: B5 VH with Y56N, G57R
VL: B2 VL with N22S, F31Y, G33S, Q61E, I91V, D99S, V100Y, Q106G, L110V
% Aggregates by SEC ([1]; conjugation with synthon CZ): 1.8%
DAR by MS ([1]; conjugation with synthon CZ): 4.5
% Aggregates by SEC ([1]; conjugation with synthon TX): 0.3%
DAR by MS ([1]; conjugation with synthon TX): 3.5

ka (human CD98 ECD): 140000 M⁻¹ s⁻¹
kd (human CD98 ECD): 2.4e-05 s⁻¹
ka [2]: 38000 M⁻¹ s⁻¹
kd [2]: 5.3e-05 s⁻¹
binding to human CD98 (human CD98): maintained binding
B3: huAb105: "heavy chain variable sequence of huAb105 is provided in SEQ ID NO: 111"; "light chain variable sequence ... in SEQ ID NO: 112" (antibody, V domains shown)
VH: B2 VH with D102H
VL: B2 VL
DAR by MS ([1]; conjugation with synthon CZ): 1.2
% Aggregates by SEC ([1]; conjugation with synthon TX): 0.6%
DAR by MS ([1]; conjugation with synthon TX): 1.7
